Reference: US20240091375A1, “AN ANTIBODY FRAGMENT BASED ANTIMICROBIAL CONJUGATE SELECTIVELY TARGETING PSEUDOMONAS” (priority 2020, published 2024)

Experiments:
P. aeruginosa [1] = assay: Kill kinetics by ATP measurement (bacterial live dead assay); type: cell-based, Pseudomonas aeruginosa; details: ATP at different time points, FIG. 7; Histatin 5 and Seq. ID 21 compared with each other
Text: FIG. 7 is a representative graph showing the kill kinetics of Seq. ID 21, Seq. ID 6, on P. aeruginosa with Histatin 5, positive control—Meropenem, and negative controls—media and culture.
Kill kinetics was done by measuring the adenosine triphosphate (ATP) during different time points using the bacterial live dead assay. […] ID 21 was similar showing bactericidal activity was due to the released Histatin on contact with the Pseudomonas. A positive control used was antibacterial Meropenem drug to show the efficiency of killing. […] The VHH antibody Seq.

Pseudomonas aeruginosa = assay: Microbiological agar-plate assay for bactericidal activity (MIC-99, MIC-50); type: cell-based; details: for MIC-50 (minimal inhibitory concentration for killing 50% microorganisms) / MIC-99 (minimal inhibitory concentration for killing 99% microorganisms): in vitro, agar-plate assay; for MIC-99 (minimal inhibitory concentration for killing 99% microorganisms): FIG. 5, Seq. ID6 value printed with 'anaerobic conditions'
Procedure: FIG. 5 is representative microbiological agar-plate assay to determine MIC-99 of purified Seq. ID 21, and Seq. ID 6;
Microbiology assays were done with the purified VHH with Seq. ID 6 and the antibody fragment based antimicrobial conjugate of Seq. ID 21 to see their bactericidal activity. As depicted in FIG. 5, the MIC-99 of the Seq. […] ID21 with a value less than 0.5 μM. The MIC-50 of Seq. ID 6 antibody fragment alone was less than 2.5 μM and that of Seq. ID 21 was less than 0.125 μM.

[2] = system: whole cell Pseudomonas spp.; assay: Whole cell ELISA binding; details: FIG. 6a
Text: FIG. 6a is a representative graph depicting the binding affinity of Seq. ID21 and Seq. ID 6 to whole cell Pseudomonas spp. in an ELISA assay;
Whole cell ELISA using Pseudomonas spp. were used to determine the binding properties of the conjugate with Seq. ID 21, and VHH Seq. ID 6. […] ID 21. Both the molecules Seq. ID 21 and Seq.

P. aeruginosa [3] = assay: Turbidity test of P. aeruginosa culture; type: cell-based, Pseudomonas aeruginosa; details: treated versus untreated control, visual, FIG. 4b
Procedure: FIG. 4b is a representative image of turbidity test of P. aeruginosa culture in the presence (Treated) and the absence (Control) of purified Seq. ID 21;
FIG. 4b represents a turbidity test, wherein sample of the pathogen P. aeruginosa was either left untreated (Control) or was treated by addition of purified Seq. ID 21 (Treated) prodrug.

Row | Molecule | Bactericidal activity in kill kinetics (P. aeruginosa [1]) | MIC-50 (minimal inhibitory concentration for killing 50% microorganisms) (Pseudomonas aeruginosa) | MIC-99 (minimal inhibitory concentration for killing 99% microorganisms) (Pseudomonas aeruginosa) | Biological activity [2] | Reduction of MIC-99 relative to Seq. ID6 antibody fragment alone (Pseudomonas aeruginosa; conjugate versus VHH alone) [fold] | Binding ability to whole cell Pseudomonas spp. after conversion of the antibody to conjugate ([2]; ELISA) | Turbidity of P. aeruginosa sample after treatment (P. aeruginosa [3])
1 | Histatin 5 [reference compound] | similar |  |  |  |  |  | 
2 | Seq. ID 6: camelid heavy chain antibody variable region fragment (VHH) specific to Pseudomonas aeruginosa antigen C4 decarboxylase transporter (protein, listed as Camelus dromedarius) VHH: DVQLQESGGASVQPGGSLLISCEASGLASYSNYCIMWFRQPPGKEREGVAGINLRSGITYYAEAVRPRFTISADSVDGRFAISQDNARNTVYLQMNSLKPEDTAIYYCAAGNLCGGSWSGYRYWGQGTQVTVSS |  | less than 2.5 μM | 10 µM | showed the desired biological activity |  |  | 
3 | Seq. ID 21: 187 amino acid conjugate: human Histatin 5, Elastase B cleavage sequence RGGGLA, Gly-Ser linker, VHH Seq. ID6 (conjugate, Antibody fragment based antimicrobial conjugate, ID6) MGDSHAKRHHGYKRKFHEKHHSHRGYDVRGGGLAGGGGSGGGGSGGGGSHMDVQLQESGGASVQPGGSLLISCEASGLASYSNYCIMWFRQPPGKEREGVAGINLRSGITYYAEAVRPRFTISADSVDGRFAISQDNARNTVYLQMNSLKPEDTAIYYCAAGNLCGGSWSGYRYWGQGTQVTVSSLE | similar | less than 0.125 μM | less than 0.5 μM | showed the desired biological activity | 20 | no loss of binding ability | visually reduced
